Measurements taken from patent US7745574B2, “Compounds that regulate apoptosis” (The Burnham Institute, priority 2005, dated 2010).
Bridges are numbered along the chain shown (N, C = ends). [ ]: non-standard residue; d: D form. The star is where a group is joined. FITC = O=C1OC2(c3ccc(O)cc3Oc3cc(O)ccc32)c2ccc(NC(=S)*)cc21; Ahx = NCCCCCC(=O)O

How the values were obtained:
GST-Bcl-2 [1] = target: T1, GST-Bcl-2 (Homo sapiens, UniProt P10415); test: Fluorescence polarization (FP) assay, GST-Bcl-2; assay type: binding
T1 construct: made in house
T1 sequence (P10415 whole entry): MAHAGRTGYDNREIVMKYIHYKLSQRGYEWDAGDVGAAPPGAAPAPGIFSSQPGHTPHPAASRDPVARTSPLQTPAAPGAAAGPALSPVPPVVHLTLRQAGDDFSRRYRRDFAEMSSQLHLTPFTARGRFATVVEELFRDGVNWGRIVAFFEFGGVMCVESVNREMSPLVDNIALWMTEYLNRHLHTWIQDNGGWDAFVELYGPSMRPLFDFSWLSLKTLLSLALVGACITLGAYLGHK
Procedure: (§1) Fluorescence polarization (FP) assays. GST-Bcl-2, GST-Bcl-XL, or GST protein was briefly incubated with FITC-conjugated peptide with or without competitors in Greiner Fluotrac 600 96-well microplates. Fluorescence polarization was recorded using an Analyst HT 96-384 microplate reader (Molecular Devices, Sunnyvale, Calif.) with excitation wavelength set at 485 nm and dynamic polarizer for emission at 530 nm.

GST-Bcl-XL = GST-Bcl-XL (Homo sapiens, UniProt Q07817); test: Fluorescence polarization (FP) assay, GST-Bcl-XL; assay type: binding
GST-Bcl-XL, sequence (Q07817 whole entry, species assumed): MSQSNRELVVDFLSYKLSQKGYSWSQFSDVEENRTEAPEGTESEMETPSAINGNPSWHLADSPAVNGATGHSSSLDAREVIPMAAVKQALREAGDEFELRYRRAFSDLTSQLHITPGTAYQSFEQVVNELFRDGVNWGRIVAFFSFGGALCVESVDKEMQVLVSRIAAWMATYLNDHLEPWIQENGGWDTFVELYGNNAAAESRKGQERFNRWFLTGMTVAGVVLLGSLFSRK
Procedure: as §1

GST = GST (Schistosoma japonicum, UniProt P08515); test: Fluorescence polarization (FP) assay, GST; assay type: binding
GST, sequence (P08515 whole entry): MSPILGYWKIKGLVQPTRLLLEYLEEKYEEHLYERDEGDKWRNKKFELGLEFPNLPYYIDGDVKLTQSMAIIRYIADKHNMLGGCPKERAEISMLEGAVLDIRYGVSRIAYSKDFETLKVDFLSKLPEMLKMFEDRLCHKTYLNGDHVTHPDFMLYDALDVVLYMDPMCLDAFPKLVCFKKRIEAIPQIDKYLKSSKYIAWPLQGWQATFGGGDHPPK
Procedure: as §1

H460 lung cancer cells [2] = test: Apoptosis in H460 lung cancer cells; assay type: cell-based; conditions: for apoptotic effect: H460 cells, peptides conjugated with CPP, 10 μM
Bcl-2 [3] = target: T2, Bcl-2 (Homo sapiens, UniProt P10415); test: Binding to Bcl-2, method not stated; design: precipitated endogenous Bcl-2 in cells treated with L-NuBCP-9-r8 or D-NuBCP-9-r8; endogenous in cells
Target sequence in this assay (P10415 whole entry, species assumed): as the sequence (P10415 whole entry) above

H460 lung cancer cells [4] = test: Apoptosis in H460 lung cancer cells; assay type: cell-based
Procedure: Bcl-2 siRNAs and antisense oligonucleotides-The target siRNA SMARTpools for Bcl-2 and Bak and the siRNA oligonucleotide for Nur77 (5'-[…] NO: 67) were purchased from Dharmacon Research Inc. Target or control siRNA were transfected at a final concentration of 200 nM into cells at 40% confluency using Oligofectamine reagent (Invitrogen) according to the manufacturer's recommendations. After 48 h, cells were analyzed. Bcl-2 antisense oligonucleotide targeting Bcl-2 and negative control oligonucleotides were obtained from Calbiochem. […] The percentages of apoptotic cells were determined by counting 300 GFP-positive cells, scoring cells having nuclear fragmentation and/or chromatin condensation. Cell culture. […] HEK293T embryonic kidney cells were grown in DME medium supplemented with 10% FBS. Jurkat and Jurkat cells stably expressing Bcl-2 were kindly provided by Dr. John Reed, and they were maintained in RPMI1640 medium.

GST-Bcl-2 [5] = target: T1, GST-Bcl-2; test: Immunoprecipitation of purified GST-Bcl-2 by anti-Bcl-2/BH3 antibody; assay type: biochemical
[6] = test system: MDA-MB435 breast carcinoma cells; test: MDA-MB435 tumors in SCID mice; assay type: in vivo
Procedure: Animal studies. Female SCID mice (6-week-old) (Tacomic) were injected with 10^6 MDA-MB435 breast carcinoma cells. Tumors were palpable on day 7. On days 10 and 13, test peptides (620 μg in 50 μL PBS) were injected into the tumor areas of 5 mice. Tumor volumes (1×w^2) were determined using calipers. No weight changes were observed. Established tumors in control mice were injected with test peptides and tumor tissues were excised and sectioned after 3 days. Tissues were fixed (10% buffered formalin), then rapidly paraffin-embedded. Apoptosis was detected by the TUNEL assay.

Bcl-2 [7] = target: T2, Bcl-2; test: Competition assay of Nur77/ΔDBD binding with Bcl-2; design: expressed in transfected cells; host or cells: HEK293T
Procedure: (§2) Nur77/Bcl-2 interaction assays—Reporter gene assays using NurRE-tk-CAT in CV-1 cells, and GST pull-down assay were described previously (Li, et al. 2000 Science 289:1159-1164). For the mammalian two-hybrid assays, CV-1 cells were co-transfected with pcDNA-Gal4TAD-Nur77 or pcDNA-Gal4TAD-Nur77/ΔDBD and pcDNA-Gal4 DBD-Bcl-2/ΔTM along with a luciferase reporter gene driven by four copies of the Gal-4-binding site. The cells were harvested and reporter gene activity was measured. For Co-IP assays, HEK293T cells were transiently transfected with various expression plasmids using a modified calcium phosphate precipitation method (Wu et al, 1997) in the presence of caspase inhibitors (zVAD-fmk) to prevent degradation of Nur77 protein due to apoptosis. Cells were suspended in lysis buffer (50 mM Tris-HCl, PH7.4; 150 mM NaCl; 20 mM EDTA; 1% NP-40; 1 mM PMSF; 50 μg/ml Leupeptin; […] Aprotinin; 0.1 mM Na3VO4; and 1 mM DTT). Cells extracts were cleared by incubation with the Protein A/G plus Agarose beads (Santa Cruz) and then incubated with appropriate antibody and 30 μl of Protein A or G plus Agarose beads overnight at 4° C. […] Immunoreactive products were detected by chemiluminescence with an enhanced chemiluminescence system (ECL) (Amersham).
Target sequence in this assay (P10415 whole entry): as above

Bcl-2 [8] = target: T2, Bcl-2; test: Bcl-2 conformational change, anti-Bcl-2/BH3 antibody staining of HEK293T cells transfected with Bcl-2; assay type: cell-based; design: expressed in transfected cells; host or cells: HEK293T
Procedure: Such a Bcl-2 conformation is recognized by an anti-Bcl-2 antibody raised against the Bcl-2 BH3 domain. To determine whether NuBCP-9 induced a Bcl-2 conformational change, flow cytometric assays were conducted which HEK293T cells transfected with Bcl-2 were exposed to NuBCPs and subsequently stained with the anti-Bcl-2/BH3 antibody.
Target sequence in this assay (P10415 whole entry): as above

Bcl-2 [9] = target: T2, Bcl-2; test: Immunoprecipitation of endogenous Bcl-2 by anti-Bcl-2/BH3 antibody in treated cells; assay type: cell-based; design: precipitated endogenous Bcl-2 in cells treated with L-NuBCP-9-r8 or D-NuBCP-9-r8; endogenous in cells
Target sequence in this assay (P10415 whole entry, species assumed): as the sequence (P10415 whole entry) above

[10] = test system: various cancer cell lines; test: Apoptosis in various cancer cell lines; assay type: cell-based
Procedure: (§3) Apoptosis assays—For nuclear morphological change analysis, cells were trypsinized, washed with PBS, fixed with 3.7% paraformaldehyde, and stained with DAPI (4,6-diamidino-2-phenylindole) (50 μg/ml) to visualize the nuclei by UV-microscopy. The percentages of apoptotic cells were determined by counting 300 GFP-positive cells, scoring cells having nuclear fragmentation and/or chromatin condensation.

[11] = test system: ZR-75-1 breast cancer cells; test: Apoptosis in ZR-75-1 breast cancer cells; assay type: cell-based; conditions: <10 μM peptide
Procedure: as §3

[12] = test system: normal primary mammary epithelial cells; test: Apoptosis in normal primary mammary epithelial cells; assay type: cell-based
Procedure: as §3

Bcl-2 [13] = target: T2, Bcl-2; test: Co-immunoprecipitation with Bcl-2 in HEK293T cells; assay type: binding; design: expressed in transfected cells; host or cells: HEK293T
Procedure: as §2, with “Nur77 peptide binds anti-apoptotic Bcl-2 family members. Nur77-peptide binds Bcl-B, Bfl-1, and Bcl-2, but not Mcl-1 and Bcl-xL. […] The expression vector for the GFP-Nur77/489-497 fusion was transfected into HEK293T cells together with or without the indicated expression vector for myc-tagged Bcl-2 family member. Cell lysates were prepared and analyzed for interaction of Nur77/489-497 with Bcl-2 family members by co-immunoprecipitation assay using anti-Myc antibody. Immunoprecipitates were then separated on SDS/PAGE and immunoblotted using anti-GFP antibody. […] Nur77/Bcl-2” for “Nur77/Bcl-2”
Target sequence in this assay (P10415 whole entry): as above

FITC-NuBCP-9-r8: FITC-conjugated NuBCP-9-r8 peptide for FP assays ({FITC}-FSRSLHSLLG[Ahx][dR][dR][dR][dR][dR][dR][dR][dR]-NH2)
FP of FITC-peptide induced by GST-Bcl-2 (GST-Bcl-2 [1]): concentration-dependent FP | FP of FITC-peptide induced by GST-Bcl-XL (GST-Bcl-XL): not | FP of FITC-peptide induced by GST (GST): not

D-Bad BH3 peptide-CC-Ant: D-enantiomer of Bad BH3 peptide, disulfide-linked to Ant (Ac-NLWAAQRYGRELRRMADEFVDAFKKCCRQIKIWFQNRRMKWKK-NH2; disulfide 26-27; not fully specified (some residues); also: D-amino acids, extent within chain not given here) [reference compound]
apoptotic effect (H460 lung cancer cells [2]): not apoptotic | binding to Bcl-2 (Bcl-2 [3]): did not bind

acetyl------------FSRSLHSLLGXrrrrrrrr-amide (Ac-FSRSLHSLLG[Ahx][dR][dR][dR][dR][dR][dR][dR][dR]-NH2; SMILES CC(=O)N[C@@H](Cc1ccccc1)C(=O)N[C@@H](CO)C(=O)N[C@@H](CCCNC(=N)N)C(=O)N[C@@H](CO)C(=O)N[C@@H](CC(C)C)C(=O)N[C@@H](Cc1c[nH]cn1)C(=O)N[C@@H](CO)C(=O)N[C@@H](CC(C)C)C(=O)N[C@@H](CC(C)C)C(=O)NCC(=O)NCCCCCC(=O)N[C@H](CCCNC(=N)N)C(=O)N[C@H](CCCNC(=N)N)C(=O)N[C@H](CCCNC(=N)N)C(=O)N[C@H](CCCNC(=N)N)C(=O)N[C@H](CCCNC(=N)N)C(=O)N[C@H](CCCNC(=N)N)C(=O)N[C@H](CCCNC(=N)N)C(=O)N[C@H](CCCNC(=N)N)C(N)=O) [NuBCP-9-r8]
apoptotic function after Bcl-2 antisense oligonucleotides (H460 lung cancer cells [4]; Bcl-2 antisense oligonucleotides): attenuated | apoptotic effect after transfection of Bcl-2 siRNA (H460 lung cancer cells [4]; H460 cells, Bcl-2 siRNA vs control GFP siRNA): inhibited | precipitation of GST-Bcl-2 protein by anti-Bcl-2/BH3 antibody (GST-Bcl-2 [5]): strong precipitation | growth of tumors ([6]; SCID mice, 620 μg injected into tumor areas on days 10 and 13, vs control NuBCP-9/AA-r8): dramatically suppressed | apoptosis of tumor cells in vivo ([6]; TUNEL assay): potently induced | apoptotic effect (H460 lung cancer cells [2]): potently induce apoptosis | binding of Nur77/ΔDBD with Bcl-2 in presence of peptide (Bcl-2 [7]): abrogated | Bcl-2 immunofluorescence by anti-Bcl-2/BH3 antibody (Bcl-2 [8]; flow cytometry): strong Bcl-2 immunofluorescence | Bcl-2 staining by anti-Bcl-2/BH3 antibody (Bcl-2 [8]; fluorescence microscopy): strongly stained | Bcl-2 immunofluorescence in the presence of caspase inhibitor zVAD (Bcl-2 [8]; zVAD present): observed | precipitation of endogenous Bcl-2 by anti-Bcl-2/BH3 antibody (Bcl-2 [9]): precipitated

acetyl---GDWIDSILAFSRSLHSLLVDKKC-X-rrrrrrrr (Ac-GDWIDSILAFSRSLHSLLVDKKC[Ahx][dR][dR][dR][dR][dR][dR][dR][dR]-NH2; also: Cys thiol joined to chloroacetyl-Ahx by thioether) [NuBCP-20-r8]
apoptotic effects [10]: potent apoptotic effects | apoptosis [11]: > 80% | apoptosis [12]: resistant | apoptotic potency compared with BH3 peptides derived from t-Bid (H460 lung cancer cells [2]): more potent | interaction with Bcl-2 by co-immunoprecipitation (Bcl-2 [13]): binding
